Source: patent publication US20240425546A1 (NANTONG YICHEN BIOPHARMA, published 2024)
Values belong to the binder of their own block, whether it stands above or below them.

Assays:
E64AK-F4-mFc = biological target: T1, E64AK-F4-mFc (mouse, UniProt P01863 123-330 = IgG part); assay: ELISA, antigen coated
T1 construct: scFv fused to the Fc of mouse IgG2a by a linker; also called E64AK-F4-mFc fusion antibody

WT hIL-1β [1] = biological target: T2, WT hIL-1β (human, UniProt P01584 117-269); assay: competitive ELISA on coated WT hIL-1β; canakinumab diluted in series, competitor E64AK-F4-mFc (100 nM)
T2 construct: Expressed in E. coli from pET28a, purified on Ni-NTA and detected with anti-His-tag antibody; also called WT IL-1β; wild-type hIL-1β

WT hIL-1β [2] = biological target: T2, WT hIL-1β; assay: cell-based or functional assay

T1 sequence (VL, as listed by the source limits assumed, chain 1 of 3): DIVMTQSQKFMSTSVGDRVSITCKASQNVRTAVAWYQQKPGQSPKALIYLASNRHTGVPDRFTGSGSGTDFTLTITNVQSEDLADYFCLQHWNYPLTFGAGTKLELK
T1 sequence (VH, as listed by the source limits assumed, chain 2 of 3): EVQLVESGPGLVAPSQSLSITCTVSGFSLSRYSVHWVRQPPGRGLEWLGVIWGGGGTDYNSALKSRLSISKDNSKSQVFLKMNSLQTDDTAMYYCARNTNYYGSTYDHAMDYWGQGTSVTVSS
T1 sequence (P01863 other isoform, or with tags, fused parts or gaps limits assumed, chain 3 of 3): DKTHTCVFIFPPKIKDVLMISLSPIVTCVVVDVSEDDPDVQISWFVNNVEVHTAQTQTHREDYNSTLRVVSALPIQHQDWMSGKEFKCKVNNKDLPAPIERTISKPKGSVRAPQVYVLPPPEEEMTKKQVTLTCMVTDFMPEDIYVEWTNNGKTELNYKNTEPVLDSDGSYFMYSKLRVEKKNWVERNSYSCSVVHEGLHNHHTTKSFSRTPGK

binding result (E64AK-F4-mFc): no binding
B1: hIL-1β63-66A (ligand)
chain: APVRSLNCTLRDSQQKSLVMSGPYELKALHLQGQDMEQQVVFSMSFVQGEESNDKIPVALGLAAAALYLSCVLKDDKPTLQLESVDPKNYPKKKMEKRFVFNKIEINNKLEFESAQFPNWYISTSQAENMPVFLGGTKGGQDITDFTMQFVSS
notes: also called IL-1β mutant containing four alanine mutations; hIL-1βE63-66A

IC50 (WT hIL-1β [1]): 2.1 nM | inhibition of IL-1β-induced activation of HEK-Blue IL-1R cells (SEAP), IC50 (WT hIL-1β [2]): 4.7 nM
B2: Canakinumab (antibody, V domains shown)
VH: QVQLVESGGGVVQPGRSLRLSCAASGFTFSVYGMNWVRQAPGKGLEWVAIIWYDGDNQYYADSVKGRFTISRDNSKNTLYLQMNGLRAEDTAVYYCARDLRTGPFDYWGQGTLVTVSS
VL: EIVLTQSPDFQSVTPKEKVTITCRASQSIGSSLHWYQQKPDQSPKLLIKYASQSFSGVPSRFSGSGSGTDFTLTINSLEAEDAAAYYCHQSSSLPFTFGPGTKVDIKR
